Assay results reported in article PMC10756261 (Proceedings of the National Academy of Sciences of the …, 2023).

Biological target: T1, GST-RPA1a (Arabidopsis thaliana, UniProt Q9SKI4 1-640)
T1 sequence (looked up): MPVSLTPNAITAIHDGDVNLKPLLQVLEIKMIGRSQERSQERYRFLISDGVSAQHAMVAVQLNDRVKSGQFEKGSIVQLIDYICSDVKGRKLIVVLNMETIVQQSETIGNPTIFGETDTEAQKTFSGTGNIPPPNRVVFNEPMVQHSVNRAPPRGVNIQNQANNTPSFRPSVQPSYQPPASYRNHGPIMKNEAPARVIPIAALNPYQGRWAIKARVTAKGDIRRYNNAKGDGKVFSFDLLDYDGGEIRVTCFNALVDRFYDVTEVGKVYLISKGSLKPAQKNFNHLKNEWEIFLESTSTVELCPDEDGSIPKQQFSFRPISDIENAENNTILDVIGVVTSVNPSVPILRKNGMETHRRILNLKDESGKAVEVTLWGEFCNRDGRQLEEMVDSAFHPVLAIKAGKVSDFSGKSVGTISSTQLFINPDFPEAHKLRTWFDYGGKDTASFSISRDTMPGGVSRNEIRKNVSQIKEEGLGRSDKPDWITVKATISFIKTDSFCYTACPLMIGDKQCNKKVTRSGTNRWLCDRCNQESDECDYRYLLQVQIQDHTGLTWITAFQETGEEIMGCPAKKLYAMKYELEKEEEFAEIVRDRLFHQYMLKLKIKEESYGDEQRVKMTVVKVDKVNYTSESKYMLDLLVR
Experiment: pull-down

binding result: binds
B1: His-Sumo-HEI10 (natural protein, Arabidopsis thaliana, UniProt F4HRI2 1-304, looked up)
chain: MRCNACWRDLEGRAISTTCGHLLCTEDASKILSNDGACPICDQVLSKSLMKPVDINPNEEWINMAMAGISPQILMKSAYRSVMFYIAQRDLEMQYKMNRVVAQCRQKCEGMQAKFSEKMEQVHTAYQKMGKRCQMMEQEVENLTKDKQELQEKFSEKSRQKRKLDEMYDQLRSEYESVKRTAIQPANNFYPRHQEPDFFSNPAVNMMENRETIRKDRSFFSPATPGPKDEIWPARQNSSNSGPFDISTDSPAIPSDLGNRRAGRGHPVYGGGGTANPQSTLRNLILSPIKRSQLSRSRPQLFTL
